The target in one series is T1, TM0415 (Thermotoga maritima, UniProt Q9WYP6).
T1 construct: gene TM_0415; synthetic gene in pET-15b, E. coli BL21(DE3)pLysS; N-terminal His-tag for activity and kinetics; untagged for crystallization; monomer
T1 sequence (Q9WYP6 1-286): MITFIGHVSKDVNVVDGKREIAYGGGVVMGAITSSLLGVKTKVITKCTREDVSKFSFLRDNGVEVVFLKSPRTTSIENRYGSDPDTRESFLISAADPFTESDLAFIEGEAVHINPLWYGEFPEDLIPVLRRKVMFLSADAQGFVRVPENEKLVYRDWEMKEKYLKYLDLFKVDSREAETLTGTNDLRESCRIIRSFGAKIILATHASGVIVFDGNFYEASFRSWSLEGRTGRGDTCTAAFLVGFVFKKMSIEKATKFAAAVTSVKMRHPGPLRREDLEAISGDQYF
The series is described as follows: X-ray crystal structure. To be noted: untagged. The class given is binding.

Substrate in series [1]: O[C@H]1[C@H](O)[C@@H](O)[C@H](O)[C@@H](O)[C@H]1O
The series is described as follows: malachite green Pi assay. The format is biochemical, Thermotoga maritima. To be noted: PPi as phosphate donor, 500 µM MgCl2, 50 mM MES-NaOH pH 6.1, 70 °C, His-tagged.

Substrate in series [2]: O=P(O)(O)OP(=O)(O)O
Kind of series: malachite green Pi assay. The class given is biochemical, Thermotoga maritima. The note with it: myo-inositol as acceptor, 500 µM MgCl2, 50 mM MES-NaOH pH 6.1, 70 °C, His-tagged, upper limit, velocity constant at 15-500 µM.

The values that follow come from paper PMC5931981, “Identification of a pyrophosphate-dependent kinase and its donor selectivity determinants” (Nature Communications, 2018).

`O[C@H]1[C@H](O)[C@@H](O)[C@H](O)[C@@H](O)[C@H]1O` [myo-inositol]: the X-ray crystal structure result at TM0415 (phosphate-acceptor site, with PCP and Mg2+, also in sulfate complex 5YSQ) was “D11, N78, Q141, and R145 in TM0415 interact with four of the six hydroxyl groups”.

For `O=P(O)(O)CP(=O)(O)O` [PCP], the X-ray crystal structure result at TM0415 (phosphate-donor site, chain A, with Mg2+ and myo-inositol) was “Chain A was complexed with PCP, a magnesium ion, and myo-inositol”.

B1: TM0415 (Thermotoga maritima MSB8) (protein)
chain: T1 sequence (Q9WYP6 1-286)
notes: synthetic gene in pET-15b, E. coli BL21(DE3)pLysS; N-terminal His-tag for activity and kinetics; untagged for crystallization; monomer
In the case of B1, the Km in “malachite green Pi assay [1]” amounted to 12 ± 2 mM. Further, the values for the turnover number (kcat) in “malachite green Pi assay [1]” and in “malachite green Pi assay [2]” were 10.8 ± 0.3 s⁻¹ and about 9.5 s⁻¹, respectively.

In general, Km refers to the concentration of substrate that gives half-maximal velocity. As usually defined, the kcat is the maximal rate divided by the concentration of active sites.
